Experimental data as given in the supplement of paper PMC9732359.
± gives the uncertainty stated by the source.

Assay: protein stability index of a GFP-peptide fusion (yeast GPS) (PSI 1-4); higher = more stable; sorted into four equal gates, so the index is relative within each strain
Procedure, shortened: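 Peptides tiling yeast proteins in 17-residue segments were fused downstream of GFP, with Cherry expressed from the same plasmid. As a pooled library in yeast, mid-log cultures grown in leucine-free medium were sorted into four equal gates by GFP/Cherry fluorescence ratio. Gate plasmids were PCR-amplified and Illumina-sequenced, and barcodes linked reads to strains. Each peptide received a protein stability index equal to the sum of each gate's read frequency times its gate number.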

Sequence	protein stability index (doa10∆)	protein stability index (pdr5∆)	protein stability index (san1∆)	protein stability index (ubr1∆)
IQISKLHYTPIEDLWQF [RPC82]	2.26 ± 0.12	2.27 ± 0.13	2.09 ± 0.12	2.36 ± 0.15
SLQSCSVAVHFQYVIDE [SMC4]	1.82 ± 0.082	1.3 ± 0.039	1.47 ± 0.084	1.54 ± 0.048
RNAALRAKAEAAEFRYK [SCL1]	2.9 ± 0.068	3.28 ± 0.072	2.93 ± 0.056	3 ± 0.057
YGHVFLGITGLATDVTT [PUP3]	1.93 ± 0.13	2.24 ± 0.098	2.25 ± 0.15	2.29 ± 0.1
DILSKLYLLLARVFEIW [SNF11]	2.15 ± 0.044	2.36 ± 0.053	2.19 ± 0.07	2.39 ± 0.041
HDEKTLAPSKHQPITSE [SIR4]	2.08 ± 0.088	2.27 ± 0.1	2.33 ± 0.12	2.27 ± 0.22
TVTDDARIFEFPKTTVA [RPL18A]	2.68 ± 0.056	2.7 ± 0.048	2.7 ± 0.061	2.42 ± 0.057
IDEAHRIKNEQSALSQI [ISW2]	2.6 ± 0.1	2.17 ± 0.091	1.67 ± 0.089	3 ± 0.069
SNGPRAAKKRRPAAKGK [RRP6]	2.97 ± 0.12	3.2 ± 0.11	3.12 ± 0.08	3.17 ± 0.085
VVGRTTRSNPPFKRKML [REC8]	2.59 ± 0.06	2.77 ± 0.059	2.71 ± 0.055	2.75 ± 0.054
PNTRDAESEAITVTAKQ [SWI3]	3.08 ± 0.075	3.23 ± 0.056	3.17 ± 0.063	3.15 ± 0.05
QEKNFQTGIFVYQNNIT [RPB5]	2.49 ± 0.064	1.52 ± 0.064	2.88 ± 0.09	2.38 ± 0.082
PQLSKAGKFPTPVSHND [RPL1A]	2.31 ± 0.04	2.87 ± 0.048	2.36 ± 0.048	2.62 ± 0.031
SNVYLSLVNSYIIDSPQ [COB]	1.76 ± 0.047	1.81 ± 0.056	2.24 ± 0.071	1.71 ± 0.052
VHPVNEREPVPLGILHI [RRP45]		2.63 ± 0.16		2.15 ± 0.19
DLPISSTDNEAITISNS [SMC1]	2.8 ± 0.079	2.89 ± 0.093	2.7 ± 0.054	2.91 ± 0.059
PLAAGNFVSEKGDLRRG [RPC53]		3.4 ± 0.19	3.31 ± 0.17	3.24 ± 0.11
PLYVMDEIDAALDFRNV [SMC4]	2.5 ± 0.059	2.33 ± 0.066	3.26 ± 0.051	2.51 ± 0.048
FGKLAFPTRLGQGYRKV [YJL039C/NUP192]	2.98 ± 0.18	1.7 ± 0.1	1.54 ± 0.18	1.62 ± 0.077
CTESTRENALYDYYALQ [SNF2]	1.83 ± 0.078	2.25 ± 0.064	2.99 ± 0.048	2.91 ± 0.083
YNNKVGVAASQGSMSER [SIR2]	1.79 ± 0.066	2.04 ± 0.063	2.49 ± 0.12	1.85 ± 0.064
SASLHLNYGVYLNGTLI [RET1]	2.65 ± 0.16		3.09 ± 0.1	3.18 ± 0.092
TLAITTVTNSKFRSSIL [RPN2]	2.19 ± 0.046	2.3 ± 0.047	2.17 ± 0.054	2.52 ± 0.045
EQSNSRKRTRSEAEQID [YCG1]	3.35 ± 0.19	3.4 ± 0.26	2.81 ± 0.1	
TAFATEFFVQVLTHESL [DLS1]	2.47 ± 0.11	2.71 ± 0.11	2.73 ± 0.088	2.02 ± 0.046
IPVNKRRGAHGSELSSK [SIR3]	3 ± 0.15	3.03 ± 0.15	3.11 ± 0.22	2.96 ± 0.19
VDKNFDKLELYVLRNVL [MTW1]	3.01 ± 0.096	2.43 ± 0.078	2.81 ± 0.12	3.05 ± 0.071

Sequence	protein stability index (doa10∆)	protein stability index (pdr5∆)	protein stability index (san1∆)	protein stability index (ubr1∆)
EWHSSLTLKEAELLVLK [PUP2]		2.47 ± 0.27		1.63 ± 0.25
RQQKLLEDQQRQQKLLL [SWI1]	3.2 ± 0.12	3.05 ± 0.062	3.03 ± 0.077	3.25 ± 0.069
SLNNSDSLISGVKQKIT [BRR2]	2 ± 0.085	1.87 ± 0.056	1.61 ± 0.16	2.31 ± 0.049
DLSADKPTSPFIDSICK [SRB8]	2.12 ± 0.034	1.88 ± 0.039	1.76 ± 0.048	1.93 ± 0.032
HPGYDCWLSNIDIQTQD [RRI1]	2.72 ± 0.099	3.14 ± 0.091	3.08 ± 0.062	3.16 ± 0.075
MVGLASGNDSMAGKVLI [BRR2]	3.24 ± 0.1	3.4 ± 0.092	3.21 ± 0.091	3.47 ± 0.058
FLWPFKLSNPSGGWGVP [RPL7A]	3.16 ± 0.077	2.85 ± 0.075	3.16 ± 0.1	3.36 ± 0.14
GPPYTTDEHLIFNSGKM [ISW2]	3.13 ± 0.059	3.26 ± 0.058	3.06 ± 0.049	2.99 ± 0.048
MSDFQKEKVEEQEQQQQ [RPS20]	2.87 ± 0.15	3.17 ± 0.15	3.16 ± 0.08	3.51 ± 0.085
PLYARYINVNPQEETIT [ECM29]	2.74 ± 0.07	2.85 ± 0.059	2.9 ± 0.067	2.69 ± 0.041
MGKKTFREWQYFKLSIT [POP8]	1.5 ± 0.046	1.76 ± 0.045	1.47 ± 0.099	1.71 ± 0.042
IVGPDLAVLALVIVKKG [RPS6A]	1.26 ± 0.035	1.34 ± 0.048	1.19 ± 0.093	1.36 ± 0.043
LIENKIQNKKIQEQRVK [RPN8]	2.61 ± 0.075	2.7 ± 0.073	2.74 ± 0.068	2.83 ± 0.049
FEDSMQFKKLTHAQRTG [PRP8]	2.81 ± 0.086	3.11 ± 0.083	3.07 ± 0.087	2.99 ± 0.085
EKKNDENSTSNSKPEKS [YLR335W/NUP2]	3.24 ± 0.086	3.21 ± 0.1	3.28 ± 0.054	3.3 ± 0.056
LQDDEDHKFPIRENKVT [BRN1]	2.7 ± 0.1	3.07 ± 0.083	2.75 ± 0.074	2.38 ± 0.095
TIRYPDPNIKVNDTVKI [RPS4A]	2.48 ± 0.09	2.87 ± 0.097	2.75 ± 0.1	2.71 ± 0.066
DAIIPFAAIPEQGIELE [FAS2]	3.12 ± 0.15	2.84 ± 0.2	3.42 ± 0.084	3.41 ± 0.1
QAPSELELQVAKTFIDL [RPS7B]	3.06 ± 0.054	3.13 ± 0.04	2.89 ± 0.072	2.99 ± 0.046
FAAAPNDTSSGTNAMLP [SNF5]	3.13 ± 0.078	3.26 ± 0.13	3.06 ± 0.096	2.89 ± 0.1
EPKKPSFTFASSKTSQP [YOR098C/NUP1]	2.93 ± 0.047	2.88 ± 0.037	2.9 ± 0.045	3.04 ± 0.031
LKEERAIEPETFTQLVS [PUP3]	2.5 ± 0.057	2.85 ± 0.059	2.94 ± 0.047	2.62 ± 0.04
FLTGQFASNKKINDESS [YML103C/NUP188]	2.23 ± 0.05	2.23 ± 0.055	2.44 ± 0.067	2.4 ± 0.052
YNVENQQYVAAGDLRAL [FAS1]	2.81 ± 0.11	2.83 ± 0.087	2.82 ± 0.13	2.85 ± 0.13
STQELQTRAKLLDNEIR [RPT5]	3.2 ± 0.15	3.05 ± 0.085	3.03 ± 0.083	2.98 ± 0.044
RRGTALGIKKEKRIQYA [RPB2]	1.95 ± 0.08	1.44 ± 0.14	2.33 ± 0.15	2.89 ± 0.072
